Target: T1, K(FEFK)2K
T1 construct: designed amphipathic self-assembling peptide, L-amino acids; printed in short form K(FEFK)2K and written out here; forms beta-sheet-rich fibres and a hydrogel at pH 7; also called base peptide; peptide 1; source: synthetic peptide; bought: LifeTein Inc. (HCl salt, nominal purity 95%)
T1 peptide: KFEFKFEFKK
Experiment: FRET or BRET; FITC/Dabcyl quenching in mixed hydrogels: base peptide 3.75 mg mL^-1 plus secondary peptide, total 7.5 mg mL^-1 (mass ratio 1:1), pH 7, water; powders mixed before dissolving, pH raised stepwise with NaOH; quenching percentage compared with base hydrogels at 3.75 and 7.5 mg mL^-1

K(FEFK)2K (peptide)
fluorescence quenching percentage: 30%

B1: (FEFK)2K (peptide)
peptide: FEFKFEFKK
notes: designed amphipathic peptide; printed in short form (FEFK)2K and written out here; source: synthetic peptide; bought: LifeTein Inc. (HCl salt, nominal purity 95%)
binding result (both partners purified): binds
